± gives the uncertainty stated by the source.
assay: amyloid nucleation score (Sup35N fusion, yeast selection) (log enrichment); library NNK1; higher = more nucleation; inactive = no reads after selection
Outline: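 Psi-negative yeast expressed Sup35N fused to peptides of 20 random codons. They were induced 24 hours with 100 μM copper sulfate, grown 7 days at 30°C without adenine and uracil, and their plasmid inserts from input and output were Illumina-sequenced. The nucleation score is the DiMSum log enrichment of output over input reads, centred on the mode score of non-aggregating sequences. Sequences with under 100 input reads were excluded.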

Substance | amyloid nucleation score
CFPMIQMEHSIKS | -0.449 ± 1.1
CFPRSRRRQRSFNLCVRESR | 1.13 ± 0.57
CFPSSVFVGCIFF | 7.532 ± 0.044
CFQPWKNLKAY | -0.67 ± 0.68
CFRFDYVGTYKHMPFR | 4.02 ± 0.16
CFRHRYRQLGIMWWGLRLQL | -1.44 ± 2.4
CFRISARFFRVQFHGVVCIW | 1.51 ± 0.25
CFSISVTAYHSKSAT | 4.14 ± 0.099
CFSSNCMEFLSNVLYKNINP | 0.626 ± 0.78
CFVVCDMAF | inactive
CFWRNFDRGEAS | 0.94 ± 0.97
CGAYRMWQYKASRGTHWPYT | -0.182 ± 0.6
CGFEVFVRIV | 0.431 ± 0.7
CGKTMGINAGMCSTNWGGPT | 0.263 ± 0.33
CGPELNESQG | -0.485 ± 0.67
CGRTYRGLS | 0.959 ± 0.72
CGYMLVYDAHMHRSLLCAC | -0.285 ± 0.26
CHLVSSTSAFA | 1.01 ± 0.56
CHMKYFREVVATV | 0.186 ± 1.1
CHSINLGLNPFKYVNLPNGH | 2.38 ± 0.15
CHTTKNYVYCVCMQFVTHQ | 6.725 ± 0.045
CIDYYLCLNMYRTGWYLRLC | inactive
CIISGMLWLAMKRTMGIELW | 2.88 ± 0.18
CIRVWCLILSRSWGFTPANC | 1.18 ± 0.9
CKDCYLITGVVINYPSRPLW | 5.985 ± 0.049

Substance | amyloid nucleation score
CKKSCGSVRSNASLTKDWSN | -0.097 ± 0.28
CKNNGGKDMSVMI | 1.14 ± 0.49
CKRWRSILVKSSRSIMGTDV | -0.171 ± 1.1
CKSRR | 0.034 ± 0.69
CLEFLG | -0.526 ± 0.49
CLETACRILGFCN | -0.488 ± 0.21
CLFFNYRVIEFNTPGVNMFW | 0.739 ± 0.33
CLGQDKLWNFVFTFLYLLQF | -0.172 ± 0.48
CLHFFTQTTVWCKHVSSQKV | 0.21 ± 0.48
CLILG | -1.31 ± 0.52
CLLLARVVALVGPPSRTSGV | -0.121 ± 0.4
CLLRTRFWR | 0.364 ± 0.56
CLPNSYGAV | 0.435 ± 0.53
CLYVAESSTTMNLWDHSVLP | -0.575 ± 0.41
CMHEKIYIITCRSCGLREIR | 0.164 ± 0.39
CMVSIQVVFKH | 4.44 ± 0.1
CNDISISFYMRTGACYWRVW | -0.499 ± 0.46
CNMSQC | inactive
CNPEGYRAHVLCFLNFA | 3.63 ± 0.092
CNRSLWAGPRLHPWTRMYVR | 0.85 ± 0.62
CNYCIWPARFVVIHDAMCVS | -0.98 ± 1.1
CPASVMAKRYCQLKMGWWGP | 0.202 ± 0.37
CPLAIVDTVHCRNSSSFSQ | -0.488 ± 0.45
CPPSYLMT | -0.464 ± 0.45
CPRIYGVRLKSSRLPAGVYV | 1 ± 1

Substance | amyloid nucleation score
CPVMA | -0.094 ± 0.27
CQELYLKFVVENFSTFLRNH | -2.68 ± 2.7
CQVPGSRRHRRSIRERQNWN | 1.32 ± 0.62
CRAGLVMSGWCRWFAQWMDS | -0.551 ± 0.59
CRCMLSLLRIRLGVSSARLG | 0.143 ± 0.49
CRLDGT | -0.36 ± 0.72
CRLESGHYLCSHGRVSGLR | 0.796 ± 0.38
CRLISCDRFRSTRSKG | 0.016 ± 0.52
CRLKH | 0.123 ± 0.3
CRRRPSSDELSVLWDAEGRY | 0.009 ± 0.66
CSAYGKNTMGSESPVMSMAS | 0.368 ± 0.72
CSCGLSYGLYFE | 0.786 ± 0.92
CSGNRMDPLTVRLFVGLGIL | 0.347 ± 0.43
CSHRM | 0.707 ± 0.51
CSILF | 0.011 ± 0.75
CSRNDTVHATINMWDNSATA | -0.07 ± 0.41
CSRTMTWYP | -1.14 ± 1.3
CSSDFYYLAELNLPFN | 0.917 ± 0.43
CSSRVRMTRQLVKLVNICMR | -0.122 ± 0.97
CSVRAVGILRWAFFGEHPLN | -0.422 ± 0.41
CSYLSLRRKCVDTQFLYDMM | -0.199 ± 0.47
CTEKMIFTDLHRLRVVYKYT | -0.59 ± 1.6
CTLVDHYWGCEGRSCARCSS | 0.233 ± 0.55
CTREVLWGCHCNSSASNLFS | -0.202 ± 0.61
CTRVTSRAM | -0.757 ± 0.9

Substance | amyloid nucleation score
CTVRFIYRKLN | -0.325 ± 0.33
CVDRNG | -0.362 ± 0.39
CVGGWWKTRHMSIWNWIWWL | 0.197 ± 0.9
CVIQVVLYLV | 3.83 ± 0.059
CVMFLGFVYVFSSLYPT | -0.981 ± 0.63
CVNIRNQKQLSFAGLVDLSV | 0.358 ± 0.59
CVTAVIRDGWGWNYCCRDHR | inactive
CVTDIRAWFKVGLCNSDVLQ | 3.89 ± 0.096
CWDLTTVCHNFNRYHSWVSR | 0.431 ± 1.1
CWDSNALADGCAWYKVLMDI | 0.229 ± 0.35
CWMHFPYQVESDGQTNRAFD | 0.041 ± 0.34
CWRLSYGLGVTFNKMLWPWK | 0.43 ± 0.56
CWVYDGRIYPHL | 1.05 ± 0.85
CYKAAQGFIFSRK | 0.482 ± 0.32
CYNTRVPFGMPLKRTPYRSR | -0.509 ± 1.1
DAEWF | 0.393 ± 0.27
DAIHVWCICRKSLVFILRNS | 0.086 ± 1
DAWGTVRYSIGFKGVVAMTS | 0.149 ± 0.29
DAYMMLFLYSPVWECFLMKG | -0.084 ± 0.28
DCKLGISGIDLVNRFLYPCM | 1.33 ± 0.84
DCLRILDGQYRRRIDRALRV | 0.09 ± 0.7
DCLSSGFLDTLYVVQVRGSD | inactive
DCRMFDFLA | -0.444 ± 0.38
DDKIVRIEDSMAASNIAFLA | 0.371 ± 0.32
DDLLH | 0.387 ± 0.79

Substance | amyloid nucleation score
DEDHFYTSRML | 0.639 ± 1.1
DFAFYTVTLCFE | 0.809 ± 0.35
DFCVPHGNCFLA | -0.747 ± 0.48
DFGRFTGSG | -0.824 ± 2.1
DFHDLSNLVTGGLLITHIL | 1.01 ± 0.58
DFHTITGMANFTLSLCYSHK | -0.945 ± 1.4
DFNSISDAKNCWSYLM | 1.25 ± 0.13
DFSLSSPRFLFGDGCRNCNA | -0.028 ± 0.36
DFVLIFLRICSCPSHTNFYL | 3.45 ± 0.12
DGARDFRLRMLACSRLSRGI | 0.053 ± 0.72
DGCDGCLTYAKCGYLGFY | 0.424 ± 0.67
DGCIKLWGF | 0.779 ± 0.67
DGCSRFRREGAEVYQRMGIG | 1.04 ± 0.85
DGGAFAGRS | -1.06 ± 0.81
DGRRLNLIWLYRIFWN | -0.767 ± 0.37
DGSVFFKADRVPLRSSNGGI | 1.2 ± 0.52
DGSVYTPVIVY | 0.207 ± 0.29
DGTNSVRIASWLNIDEGAL | -0.225 ± 0.42
DHITKHFIGV | inactive
DHSCWGAWWVHFGAHDGGWC | 1.25 ± 0.79
DIALMWLLLVHRDYT | -1.07 ± 0.76
DICVWDYMNRGGQLL | -0.047 ± 0.86
DIRCGLDGNWVSSFVRQQGS | inactive
DIRMVDWVRNRVQHVADGK | -0.892 ± 0.7
DIRNLLTWSISDVVTVRKIG | -0.643 ± 0.33

Substance | amyloid nucleation score
DISMLRKKSCKHTVNMMSL | -0.431 ± 0.27
DIVATYRVRISLNPNVMVTY | 0.466 ± 0.32
DKELSFAKGACSKFSDSFRA | -1.45 ± 1.1
DKRNVASYDSMCQLLAILFN | 0.512 ± 0.34
DLAFRPVLVLQ | 0.762 ± 0.65
DLAHYAW | 0.286 ± 0.45
DLDKRMVSYDFKICGYKINF | 3.77 ± 0.1
DLMGSWYDLRYMKGLKGK | -0.265 ± 0.13
DLPLGQRYSCAQVGGWSYYE | 0.556 ± 0.45
DLSNNRWWFNRFRALHYKSS | -0.358 ± 0.85
DLSWSGTFSAGHGNMNFTKS | 2.53 ± 0.15
DLTVWSTIFDSMSTCEHRGG | 0.257 ± 0.42
DLVSVHHVNRLRCWSGCLCE | -0.532 ± 0.51
DLYEAMSRNLADYRAVWGLS | inactive
DMDGDSLGVFWALATVYQAH | -0.551 ± 0.36
DMEYGGKRHNNCSDLIITNC | -0.726 ± 1.1
DMGSHIARSTKMVPICGGSR | -0.259 ± 1.4
DMNILVLLMGDVVRLATTEW | 2.68 ± 0.17
DMNLRVDLYMKFEWSGLVER | 0.109 ± 0.36
DMQSEGDRGDHRGSRDCRS | 0.983 ± 1
DNIYIYIPVTYFCATLRMWR | 5.09 ± 0.071
DNMSVLYDTTLVFRWIWVEP | inactive
DNSRIYLCGSLNCFYFSDVL | 7.656 ± 0.074
DNVFEALAL | inactive
DNYVMWVLEGLSYVLGNNRI | -0.087 ± 1

Substance | amyloid nucleation score
DPEVIGLIVCNM | -1.16 ± 1
DREIAMVWHLSYIIFYFSES | -0.993 ± 0.33
DRFSYLEHDSRDRRRVE | inactive
DRMKTQGFCQTFNFWLGYYI | 6.97 ± 0.075
DRMLLMVCIVWNRFVKGFPH | inactive
DRNYVGELTEFTGVMGRGRQ | -0.858 ± 1.1
DRPTRLSVIFGRPP | inactive
DRRGRRYKVRRVCMVMESLG | 0.703 ± 0.58
DRTLDDPGVHHASKAE | inactive
DRWWILNGTTDLSLGWVLEC | 0.648 ± 0.97
DRYCGYWNGTSSCMICGRVV | 1.1 ± 0.69
DSCRWGFLRVRVLGFSSVWY | -0.28 ± 0.49
DSEDVVLQCEWWTRLARIEY | -0.333 ± 0.54
DSGLSAMGMELRCYEYLVSW | 0.886 ± 1.1
DSLVGVARDSMTSKQHNKNE | -0.112 ± 0.69
DSMKN | 1.39 ± 0.13
DSQMYTMH | -0.054 ± 0.71
DSSMWFTASLYSYVLLSLNL | 0.73 ± 0.36
DSSRSVFLWTGG | -0.994 ± 1.9
DSSYKWWTYFWGA | -0.267 ± 0.42
DSVLNGSFAACLDWDALPGQ | 0.272 ± 0.54
DSWRSIIGFRERVSTMQYLI | 0.96 ± 0.66
